In patent publication US20240207421A1, “NERVE TARGETING PEPTIDES AND METHODS OF USE” (ALUME BIOSCIENCES, INC., priority 2020, published 2024):

Target: Laminin 421/521
Assay: phage display, NGS count

| Count | Binder |
| --- | --- |
| 33 | HSTYAPG |
| 29 | LGSSRSPSSFLG |
| 31 | GPMLKNLSDAVT |
| 34 | VYRNGGGLPLTA |
| 28 | STNVQRA |
| 31 | VVPSWPSVHRPP |
| 32 | CHNADNNGC |
| 28 | GIVPSRHTTGLG |
| 33 | CGETTAGKC |
| 34 | TFGSGRSMPIQY |
| 30 | RNLHYPLNHPFM |
| 28 | TKGIAPK |
| 28 | SVLSTGTANQRH |
| 31 | CSSQAKRSC |
| 30 | TAPRWTQ |
| 30 | CKSERGPEC |
| 29 | QGWKDRLPIWRY |
| 29 | EDRMMTYRYTST |
| 30 | GPLLFRG |
| 29 | IDQSGLQKSGMK |
| 30 | QTFGYSMFNVRT |
| 28 | CTDGRNFVC |
| 35 | ALKIGPETTIYM |
| 27 | VIADQSKSAVAV |
| 30 | QGWEFQVPARHS |
| 30 | GLLDWGSLQGGN |
| 28 | CTGETLLTC |

| Count | Binder |
| --- | --- |
| 28 | CTSSSHQTC |
| 32 | QALRTNYSPLNS |
| 28 | QPTPSQIKFTRT |
| 31 | CQTSGHHQC |
| 29 | AVRPLGLPDNHR |
| 29 | SHDVANGTSVRT |
| 31 | CTAWTRQEC |
| 29 | DSLYRGMHQPRI |
| 33 | QINWKQADKNAD |
| 32 | LPMLRHS |
| 29 | NGHEVQSRAANR |
| 30 | CQGWPRPMC |
| 30 | KASIAYD |
| 28 | RALDRYLPWSPH |
| 35 | DWTQVRVTNWFL |
| 28 | ETGGLAYGSGQK |
| 29 | FNSDSRSTHQED |
| 30 | GSPEKRT |
| 28 | GWTSDLSRNVRG |
| 28 | SLPYAASLNSVE |
| 29 | SVESNSKLTMPR |
| 28 | SWHFTGTPFMNR |
| 29 | CIGGPHRNC |
| 31 | SLLSVVNTSSKS |
| 29 | CKSPAIKGC |
| 31 | WGWNGANMSPRG |
| 29 | HPAWADFFTMSS |

| Count | Binder |
| --- | --- |
| 32 | TLKAGTRANDGV |
| 31 | GGWQSLWDKPEH |
| 30 | WRSPLTT |
| 28 | KFADTKLTSLRY |
| 28 | TALSHRHEAMRW |
| 30 | CTWKHRDNC |
| 28 | CPMHQSKTC |
| 28 | AQNLRVHAWASL |
| 31 | EYVKFSHSPRTY |
| 30 | VPSYILR |
| 28 | HTQIHRL |
| 28 | SVQTPMWRSLVG |
| 34 | ALPWQSGVHGTK |
| 29 | WPMMQTR |
| 31 | NHDQGSLTRWRS |
| 30 | LGYGQGTPHRSN |
| 29 | CNSWKAAKC |
| 29 | EVERILTPHVNN |
| 29 | IDLSLRS |
| 29 | SPDRTNWGWQTN |
| 30 | CSRAGLSAC |
| 28 | SYTATWSEMSRS |
| 28 | QLQHVHL |
| 32 | NDTGRHASGISK |
| 28 | TVARSTAQERSI |
